Measured values: IntAct's records for PubMed 24656813

B1: Telomere length regulation protein TEL2 homolog (Homo sapiens), Q9Y4R8 (parent)
chain: MEPAPSEVRLAVREAIHALSSSEDGGHIFCTLESLKRYLGEMEPPALPREKEEFASAHFSPVLRCLASRLSPAWLELLPHGRLEELWASFFLEGPADQAFLVLMETIEGAAGPSFRLMKMARLLARFLREGRLAVLMEAQCRQQTQPGFILLRETLLGKVVALPDHLGNRLQQENLAEFFPQNYFRLLGEEVVRVLQAVVDSLQGGLDSSVSFVSQVLGKACVHGRQQEILGVLVPRLAALTQGSYLHQRVCWRLVEQVPDRAMEAVLTGLVEAALGPEVLSRLLGNLVVKNKKAQFVMTQKLLFLQSRLTTPMLQSLLGHLAMDSQRRPLLLQVLKELLETWGSSSAIRHTPLPQQRHVSKAVLICLAQLGEPELRDSRDELLASMMAGVKCRLDSSLPPVRRLGMIVAEVVSARIHPEGPPLKFQYEEDELSLELLALASPQPAGDGASEAGTSLVPATAEPPAETPAEIVDGGVPQAQLAGSDSDLDSDDEFVPYDMSGDRELKSSKAPAYVRDCVEALTTSEDIERWEAALRALEGLVYRSPTATREVSVELAKVLLHLEEKTCVVGFAGLRQRALVAVTVTDPAPVADYLTSQFYALNYSLRQRMDILDVLTLAAQELSRPGCLGRTPQPGSPSPNTPCLPEAAVSQPGSAVASDWRVVVEERIRSKTQRLSKGGPRQGPAGSPSRFNSVAGHFFFPLLQRFDRPLVTFDLLGEDQLVLGRLAHTLGALMCLAVNTTVAVAMGKALLEFVWALRFHIDAYVRQGLLSAVSSVLLSLPAARLLEDLMDELLEARSWLADVAEKDPDEDCRTLALRALLLLQRLKNRLLPPASP

Variants of: B1
Details: with pihd1_human PIH1D1, Q9NWS0
Sequence of pihd1_human PIH1D1, Q9NWS0 (Q9NWS0 whole entry): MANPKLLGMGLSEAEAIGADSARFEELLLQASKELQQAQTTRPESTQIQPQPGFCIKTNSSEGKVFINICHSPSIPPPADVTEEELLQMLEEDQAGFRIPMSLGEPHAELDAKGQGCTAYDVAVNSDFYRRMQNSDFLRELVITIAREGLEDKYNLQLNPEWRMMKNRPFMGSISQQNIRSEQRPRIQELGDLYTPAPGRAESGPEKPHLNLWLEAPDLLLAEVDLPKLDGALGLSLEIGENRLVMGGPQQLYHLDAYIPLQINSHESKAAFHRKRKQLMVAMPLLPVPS

| Variant | effect of a mutation on the interaction |
| --- | --- |
| D492A;D493A | disrupting interaction strength |

Variants of: B1
Details: with pihd1_human PIH1D1, Q9NWS0
Remark: another data set of the same source

| Variant | effect of a mutation on the interaction |
| --- | --- |
| D492A | disrupting interaction strength |
| D490A | disrupting interaction strength |
| D493A | disrupting interaction strength |
